# According to PMC4295097:
# Biological target: meditope-enabled trastuzumab
# Experiment: SPR
Substance,Kd [nM],kon [M⁻¹ s⁻¹]
meditope-protein L construct with six-residue linker PPPGPP (designed binder),1.1,
meditope-protein L construct with six-residue linker GGGGSE (designed binder),0.18,
meditope-protein L construct with three-residue linker PSE (designed binder),1.3,
meditope-protein L construct with six-residue linker GGPGSE (designed binder),0.18,
meditope-protein L construct with zero length linker (designed binder),170,160000
